Where a chain is given by its changes, count along the chain named.

In the test the target is unmodified NA of A/Vietnam/1203/2004 (VN04, H5N1) (Influenza A virus A/Vietnam/1203/2004 …, UniProt Q6DPL2). Kind of test: ELISA. The settings on record: both partners purified. On the technique in general: In an ELISA, binding on a coated surface is turned into a signal by an enzyme label.

B1: NCS.1.1 mAb (IgG) (antibody, V domains shown)
VH: QVQLQESGPRLVKPSETLSLTCSVSGESISSGGYYWTWIRQHPGKGLEWIGNIFDTGSTDYSPSLKTRLTISIDTSKNQFYLRLNSATAADTAVYYCARVGFSLETDRPYYLGLDVWGQGTTVTVSS
VL: DIVMTQSPLSLPVTPGEPASISCRSSQSLLHSNGYTYLDWYLQKPGQSPQLLISFTSNRASGVPDRFSGSGSGTYFTLKISRVEAEDVGVYYCMQAVQTPWTFGQGTKVEIK
notes: copies: 2 + 2
In the case of B1, the binding result is “binds”.

B2: NCS.1.3 mAb (IgG) (antibody, V domains shown)
VH: B1 VH with N85T
VL: B1 VL with S10T, S54Y, T56A, T99S
notes: copies: 2 + 2
For the molecule B2, the binding result was “binds”.

The record behind these values is article doi:10.1101/2024.11.27.625426 (bioRxiv, 2024).
